In FireProtDB (doi:10.1093/protein/gzi067):

B1: Cytochrome b5, P00171 (parent)
chain: MAEESSKAVKYYTLEEIQKHNNSKSTWLILHYKVYDLTKFLEEHPGGEEVLREQAGGDATENFEDVGHSTDARELSKTFIIGELHPDDRSKITKPSESIITTIDSNPSWWTNWLIPAISALFVALIYHLYTSEN

Variants of: B1
Conditions: Bos taurus, pH 7, 25 °C, CD, MOPS 30 mM, reversible: yes (partial), structure 1CYO, whole UniProt chain shown

Row | Variant | ddG of mutation (higher = less stable) (GdnHCl) [kcal/mol] | denaturant midpoint (higher = more stable) (GdnHCl) [M] | unfolding free energy (GdnHCl) [kcal/mol] | denaturant midpoint (higher = more stable) (GdnSCN) [M]
1 | MAEESSKAVKYYTLEEIQKHNNSKSTWLILHYKVYDLTKFLEEHPGGEEVLREQAGGDATENFEDVGHSTDARELLKTFIIGELHPDDRSKITKPSESIITTIDSNPSWWTNWLIPAISALFVALIYHLYTSEN [S76L] | -0.8 | 2.3 | 3.8 | 1.59
2 | MAEESSKAVKYYTLEEIQKHNNSKSTWLILHYKVYDITKFLEEHPGGEEVLREQAGGDATENFEDVGHSTDARELLKTFIIGELHPDDRSKITKPSESIITTIDSNPSWWTNWLIPAISALFVALIYHLYTSEN [S76L L37I] | -0.5 | 1.9 | 3.5 | 1.8
